# Earlier results in paper PMC6589385.
# Target: His37 (UniProt position 37, IIGILHLILWI)
# Test: NMR
# Conditions: Membrane-bound wild-type AM2 tetrameric channel
substance,measurement,value
"Influenza A virus M2 protein (AM2) transmembrane domain, wild type (Influenza A virus)",pKa,5.9
